Experimental data as given in paper PMC6344864 (Nucleic Acids Research, 2018).

T1: His6-tagged Dmc1 (Saccharomyces cerevisiae, UniProt P25453 1-334)
T1 sequence (looked up): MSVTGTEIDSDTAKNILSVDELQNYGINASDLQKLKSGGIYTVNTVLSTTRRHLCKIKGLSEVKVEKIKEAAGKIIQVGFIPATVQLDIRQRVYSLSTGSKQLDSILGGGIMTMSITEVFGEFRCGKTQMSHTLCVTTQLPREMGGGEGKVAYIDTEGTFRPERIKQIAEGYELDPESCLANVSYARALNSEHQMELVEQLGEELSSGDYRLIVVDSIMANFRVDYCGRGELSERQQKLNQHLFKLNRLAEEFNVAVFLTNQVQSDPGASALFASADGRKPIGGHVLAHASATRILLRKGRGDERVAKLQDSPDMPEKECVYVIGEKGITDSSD

T2: Rdh54/Tid1 (Saccharomyces cerevisiae, UniProt P38086 1-958)
T2 sequence: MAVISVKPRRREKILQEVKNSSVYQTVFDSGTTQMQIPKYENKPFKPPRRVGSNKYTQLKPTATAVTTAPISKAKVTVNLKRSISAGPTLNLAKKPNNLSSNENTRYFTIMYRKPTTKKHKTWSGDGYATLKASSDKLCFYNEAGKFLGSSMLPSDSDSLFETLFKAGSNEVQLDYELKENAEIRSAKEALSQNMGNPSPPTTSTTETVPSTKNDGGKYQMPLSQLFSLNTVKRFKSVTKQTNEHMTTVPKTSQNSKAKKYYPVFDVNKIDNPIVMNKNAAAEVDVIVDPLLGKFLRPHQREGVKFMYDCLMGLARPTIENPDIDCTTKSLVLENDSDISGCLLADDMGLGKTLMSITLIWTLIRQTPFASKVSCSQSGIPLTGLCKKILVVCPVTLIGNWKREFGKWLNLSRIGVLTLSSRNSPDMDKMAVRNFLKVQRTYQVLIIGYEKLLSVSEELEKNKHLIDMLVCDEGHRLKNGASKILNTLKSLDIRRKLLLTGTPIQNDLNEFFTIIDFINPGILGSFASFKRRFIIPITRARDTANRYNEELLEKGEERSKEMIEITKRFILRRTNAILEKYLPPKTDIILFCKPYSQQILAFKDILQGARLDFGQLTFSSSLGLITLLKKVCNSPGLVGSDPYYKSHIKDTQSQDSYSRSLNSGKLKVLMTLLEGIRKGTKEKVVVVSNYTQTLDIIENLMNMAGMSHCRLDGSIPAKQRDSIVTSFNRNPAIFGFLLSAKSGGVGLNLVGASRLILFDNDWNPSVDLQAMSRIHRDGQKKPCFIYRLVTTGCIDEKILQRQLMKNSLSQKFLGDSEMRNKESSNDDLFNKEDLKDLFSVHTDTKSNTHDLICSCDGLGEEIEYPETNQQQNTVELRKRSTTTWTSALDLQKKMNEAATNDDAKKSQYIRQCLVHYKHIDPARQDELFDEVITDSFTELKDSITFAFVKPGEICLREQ


Columns and labels:
[1] = molecular target: Replication protein A (RPA), Saccharomyces cerevisiae (Saccharomyces cerevisiae, UniProt P22336 1-621; P26754 1-273; P26755 1-122); experiment: pull-down
His6-tagged Dmc1 = molecular target: T1, His6-tagged Dmc1; experiment: co-IP
Rdh54/Tid1 = molecular target: T2, Rdh54/Tid1; experiment: fluorescence polarization

Chain of Replication protein A (RPA), Saccharomyces cerevisiae (P22336 whole entry, chain 1 of 3): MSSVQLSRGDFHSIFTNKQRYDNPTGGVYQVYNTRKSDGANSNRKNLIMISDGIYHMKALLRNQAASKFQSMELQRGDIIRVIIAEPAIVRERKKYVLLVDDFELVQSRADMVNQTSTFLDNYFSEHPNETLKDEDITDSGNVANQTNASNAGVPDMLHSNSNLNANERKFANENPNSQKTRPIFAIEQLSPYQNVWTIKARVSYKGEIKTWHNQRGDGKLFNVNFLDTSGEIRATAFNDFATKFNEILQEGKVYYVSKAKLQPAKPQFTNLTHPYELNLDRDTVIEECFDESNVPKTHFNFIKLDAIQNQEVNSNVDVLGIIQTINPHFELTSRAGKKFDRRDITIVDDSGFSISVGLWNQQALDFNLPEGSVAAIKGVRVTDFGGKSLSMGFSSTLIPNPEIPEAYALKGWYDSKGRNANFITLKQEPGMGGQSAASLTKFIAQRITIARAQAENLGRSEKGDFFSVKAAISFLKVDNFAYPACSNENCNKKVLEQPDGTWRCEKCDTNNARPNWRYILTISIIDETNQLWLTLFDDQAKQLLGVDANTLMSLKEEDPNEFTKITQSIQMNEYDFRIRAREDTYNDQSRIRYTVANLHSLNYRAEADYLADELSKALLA
Chain of Replication protein A (RPA), Saccharomyces cerevisiae (P26754 whole entry, chain 2 of 3): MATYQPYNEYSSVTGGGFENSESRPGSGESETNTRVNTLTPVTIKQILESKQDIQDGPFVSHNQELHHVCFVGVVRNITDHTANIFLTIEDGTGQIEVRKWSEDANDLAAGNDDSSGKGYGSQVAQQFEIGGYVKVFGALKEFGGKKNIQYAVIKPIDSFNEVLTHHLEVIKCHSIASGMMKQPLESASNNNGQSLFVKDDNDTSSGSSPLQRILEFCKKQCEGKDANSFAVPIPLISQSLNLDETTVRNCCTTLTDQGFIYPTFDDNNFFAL
Chain of Replication protein A (RPA), Saccharomyces cerevisiae (P26755 whole entry, chain 3 of 3): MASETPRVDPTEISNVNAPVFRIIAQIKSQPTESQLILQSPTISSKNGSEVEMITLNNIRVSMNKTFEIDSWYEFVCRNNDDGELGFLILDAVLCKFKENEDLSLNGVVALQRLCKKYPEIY

Binder | binding result [1] | binding result (His6-tagged Dmc1) | Kd (Rdh54/Tid1)
His6-tagged Mei5-Sae3 heterodimer (complex, Saccharomyces cerevisiae) chain 1: MHNQEEWLDKDKTLVNEEENTCINHSYTKKDTNNYRVGKSGIKDLKKPTNQKEIAIKNRELTKQLTLLRQENNHLQQACKILSENKIIENRKSIEKWRTICEMELSFILNSTLIKINRMGGYKDFLEKEMEAKKRRLEYQIDNGMEDQICEIKESDDFRQLSEVEKQEWESQMNEQLKELEKKKIAELEKLNKVLHDSEGKDFGMAELCTRLKLDYSLIFPQ chain 2: MNYLETQLNKKQKQIQEYESMNGNLIKMFEQLSKEKKNDETPKKISSTYIKELKEYNELRDAGLRLAQIIADEKQCKIKDVFEEIGYSMKD | binds | binds | 
84-mer ssDNA (ssDNA) DNA: GGTAGCGGTTGGGTGAGTGGTGGGGAGGGTCGGGAGGTGGCGTAGAAACATGATAGGAATGTGAATGAATGAAGTACAAGTAAA |  |  | 230 nM
